{"source": "the nanobody polyreactivity screen of Harvey et al. (2022)"}
{"assay": "yeast display, Sf9 membrane polyspecificity reagent, FACS + sequencing; frameworks hold sequencing errors", "how_it_was_run": "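Nanobodies from a synthetic yeast display library (Saccharomyces cerevisiae BJ5465), induced 36–48 hours with galactose, were stained 1 hour at 4 °C with 10% biotinylated, detergent-solubilized Sf9 membrane reagent, enriched on streptavidin microbeads, then FACS-sorted. Anti-HA (expression) and streptavidin (reagent binding) fluorescence set low and high (top ~1%) gates. Polyreactivity labels come from the gate of origin. Genes were colony-PCR amplified, MiSeq 2 × 250 sequenced and filtered by CDR length.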"}
{"sequence": "QVQLVESGGGLVQAGGSLRLSCAASGRIFGNNVMGWYRQEPGKERELVAAITFSGTSTYYADSVKGRFTISRDNAKNTVYLQMNSLKPEDTAVYYCAKYRYADYYSPGYDYWGQGTQVTVSS", "polyreactivity (PSR sort gate)": "low polyreactivity"}
{"sequence": "QVQLVESGGGLVQAGGSLRLSCAASGRIFGNYAMGWYRQAPGKERELVAAISNGSGRTSYADSVKGRFTISRDNAKNTVYLQMNSLKPEDTAVYYCAVLRPKSRKHTVGFCYWGQGTQVTVSS", "polyreactivity (PSR sort gate)": "high polyreactivity"}
{"sequence": "QVQLVESGGGLVQAGGSLRLSCAASGRIFGPYAMGWYRHAPGKERELVAAISSSGSTTYYADSVKGRFTISRDNAKNTVYLQMNSLKPEDTAVYYCAKPSSRDSPYDYWGQGTQVTVSS", "polyreactivity (PSR sort gate)": "low polyreactivity"}
{"sequence": "QVQLVESGGGLVQAGGSLRLSCAASGRIFGPYAMGWYRPATGKERELVAAISSRGSSTYYADSVKGRFTISRDNAKNTVYLQMNSLKPEDTAVYYCAARDYLAYYWGPSLYTFDYWGQGTEVTVSS", "polyreactivity (PSR sort gate)": "high polyreactivity"}
{"sequence": "QVQLVESGGGLVQAGGSLRLSCAASGRIFGPYAMGWYRQAPGKERELVAAISGRGSSTYYADSVKGRFTISRDNAKNTVYLQMNSLKPEDTAVYYCAKYPTYSYDYWGQGTQVTVSS", "polyreactivity (PSR sort gate)": "high polyreactivity"}
{"sequence": "QVQLVESGGGLVQAGGSLRLSCAASGRIFGPYAMGWYRQAPGKERELVAASSTDYADSVKGRFTISRDNAKNTVYLQMNSLKPEDTAVYYCAKVGFGIPGGFYYWGQGTQVTVSS", "polyreactivity (PSR sort gate)": "low polyreactivity"}
{"sequence": "QVQLVESGGGLVQAGGSLRLSCAASGRIFGPYTMGWYIQAPGKEREFVAAITRRGGTTYYADSVKGRFTISRDNAKNTVYLQMNSLKAEDTGVYYCDAVGQKRSLGYSWGQGTQVTVSS", "polyreactivity (PSR sort gate)": "low polyreactivity"}
{"sequence": "QVQLVESGGGLVQAGGSLRLSCAASGRIFGPYVMGWYIQAPGKERELVAAISTSGTSTYYADSVKGRFTISRDNANNTVYLQMNSLKPEDTAVFYFAKRSGARHRLMDYWGQGTQVTVSS", "polyreactivity (PSR sort gate)": "low polyreactivity"}
{"sequence": "QVQLVESGGGLVQAGGSLRLSCAASGRIFGQNAMGWYRQAPGKERELVAAITWNGGRTYYADSVKGRFTISRDNAKNTVYLQMNSLKPEDTAVYYCNADGKHRLRDYWGQGTQVTVSS", "polyreactivity (PSR sort gate)": "high polyreactivity"}
{"sequence": "QVQLVESGGGLVQAGGSLRLSCAASGRIFGQNVIGWYRQAPGIERELVAAITSAGRTYYADSVKGRFTISRDNAKNPVYLQMNSLKPEDTAVYYCAAQYPINYFTGYGYWGQGTQVTVSS", "polyreactivity (PSR sort gate)": "high polyreactivity"}
{"sequence": "QVQLVESGGGLVQAGGSLRLSCAASGRIFGQYAMGWYRQAPGKERELVAAITYSTGSTSYADSVKGRFTISRDNAKNTVYLQMNSLKPEDTAVYYCAAGGGRWYYPKRGSPYGFYYWGLGTQVTVSS", "polyreactivity (PSR sort gate)": "high polyreactivity"}
{"sequence": "QVQLVESGGGLVQAGGSLRLSCAASGRIFGRNAMGWYRQAPGKERELVAAIRLSGGSTYYADSVKGRFTISRDNAKNTVYLQMNSLKPEDTAVYYCATRPVANGRKYDYWGQGTQVTVSS", "polyreactivity (PSR sort gate)": "high polyreactivity"}
{"sequence": "QVQLVESGGGLVQAGGSLRLSCAASGRIFGRNTMGWYRQAAGKERELVASITFGGVSTYYADSVKGRFTISRDTEKNTVYLQMNSLKPEDTEVYYCAAVLINYEGYDSWGQGTQVTVSS", "polyreactivity (PSR sort gate)": "low polyreactivity"}
{"sequence": "QVQLVESGGGLVQAGGSLRLSCAASGRIFGRYAMGWSRQAPGKERELVASISKRGGSTYYADSVKGRFTISRDNAKNTVYLQMNSLKPEDTAVYYCAALFLSHIYYYWGQGTQVTVSS", "polyreactivity (PSR sort gate)": "high polyreactivity"}
{"sequence": "QVQLVESGGGLVQAGGSLRLSCAASGRIFGRYAMGWYIQAPGKERELVAAISRRGVSTTYADSVKGRFTISRDNAKNTVYLQMNSLKPEDTAVYYCAAVRYGYSSTRDYLGQGTQVTVSS", "polyreactivity (PSR sort gate)": "high polyreactivity"}
{"sequence": "QVQLVESGGGLVQAGGSLRLSCAASGRIFGRYAMGWYRQAPGKERELVAAISVSGGSTYYADSVKGRFTISRDNAKNTVYLQMNSLKPEDTAVYYCATEWRPRYYGTEPFDSWGQGTQVTVSS", "polyreactivity (PSR sort gate)": "high polyreactivity"}
{"sequence": "QVQLVESGGGLVQAGGSLRLSCAASGRIFGRYAMGWYRQAPGKERELVADITYRTGRTYYADSVKGRFTISRDNAKNTVYLQMNSMKPEDTAVYYCAAESTSDPIDFEYWGQGTQVTVSS", "polyreactivity (PSR sort gate)": "low polyreactivity"}
{"sequence": "QVQLVESGGGLVQAGGSLRLSCAASGRIFGRYAMGWYRQAPGKERELVATITSGGSTYYADSVKGRFTISRDNAKNTDYLQMNSLKPEDTAVYFCAAVHRGYFLAFYYWGQGTQVTVSS", "polyreactivity (PSR sort gate)": "high polyreactivity"}
{"sequence": "QVQLVESGGGLVQAGGSLRLSCAASGRIFGRYTMGWYRQAPGKGRELDAAISDSGDSTYADSVKGRFTISRDNAKNSVYFQMNSLKPEDTAVYFCNAQSGSFAGHEYDYWGQGTQLTVSS", "polyreactivity (PSR sort gate)": "low polyreactivity"}
{"sequence": "QVQLVESGGGLVQAGGSLRLSCAASGRIFGRYVMGWYRQAPGKERELVAVISRRSGNTYYADSVKGRFTISRDYAKNTVYLQMNSLKPEDTAVLYCAARYYYSKSDRYDYWGEGTQVTVSS", "polyreactivity (PSR sort gate)": "high polyreactivity"}
{"sequence": "QVQLVESGGGLVQAGGSLRLSCAASGRIFGSYAMGWYRPAPGKERELVAAINRSGGSTRYADSVKGRFTISRDNAKNTVYLQMNSLKPEDTAVYYCAAPSYARYYAYDSWGQGTQVTVSS", "polyreactivity (PSR sort gate)": "high polyreactivity"}
{"sequence": "QVQLVESGGGLVQAGGSLRLSCAASGRIFGSYAMGWYRQAPGKERELVAAISGSGSRTYYADSVKGRFTISRDNAKNTVYLQMNSLKPEDTAVYYCNKYRFRVYPFGYWGQGTQVTVSS", "polyreactivity (PSR sort gate)": "high polyreactivity"}
{"sequence": "QVQLVESGGGLVQAGGSLRLSCAASGRIFGSYAMGWYRQAPGKERELVAAISWRGTSTYYADSVKRRFTISRDNAKKTVYLQMNSLKPEDTAVYYCAARGLWPYDYWGQGTQVTVSS", "polyreactivity (PSR sort gate)": "low polyreactivity"}
{"sequence": "QVQLVESGGGLVQAGGSLRLSCAASGRIFGSYAMGWYRQAPGKERELVAAISWSGGRTYYADSVKGRFTISRDNAKNTVYLQMNSLKPEDTAVYYCNALVFGRYRDMDYWGQGTQVTVSS", "polyreactivity (PSR sort gate)": "high polyreactivity"}
{"sequence": "QVQLVESGGGLVQAGGSLRLSCAASGRIFGSYAMGWYRQAPGKERELVAAITTDDSTNYADSVKGRFTISRDNAKNTVYLQMNSLKPEDTAVYYCNAERWDELFDSWGQGTQVTVSS", "polyreactivity (PSR sort gate)": "low polyreactivity"}
{"sequence": "QVQLVESGGGLVQAGGSLRLSCAASGRIFGSYAMGWYRQAPGKERELVASITSSGGSTYYADSVKGRFTISRDNAKNTVYLQMNSLKPEDTAVYYCAAGCAYLDAFYPYGYWGQGTQVTVSS", "polyreactivity (PSR sort gate)": "low polyreactivity"}
{"sequence": "QVQLVESGGGLVQAGGSLRLSCAASGRIFGSYTMGWYRQAPGKERELVAAISFSGARTRYADSVKGRFTISRDNANNTVYLQMNSLKPEDTAVYYCAARFTGGKYDYWGQGTQVTVSS", "polyreactivity (PSR sort gate)": "high polyreactivity"}
{"sequence": "QVQLVESGGGLVQAGGSLRLSCAASGRIFGTNAMGWYRQAPGKERELVAAISRSGGSTYYADSVKGRFTISRDNAKNTVYLQMNSLKPEDTAVYYCATDGRHTYYYWGQGTQVTVSS", "polyreactivity (PSR sort gate)": "high polyreactivity"}
{"sequence": "QVQLVESGGGLVQAGGSLRLSCAASGRIFGTNAMGWYRQAPRKERELVATITRGGGNTYYADSVKGRFTISRDNAKNTVYLQLNSLKPEDTAVYYCAAYDSVQKYWILGFDYWGQGTQVTVSS", "polyreactivity (PSR sort gate)": "low polyreactivity"}
{"sequence": "QVQLVESGGGLVQAGGSLRLSCAASGRIFGTYAMGWYIQAPGKERELVAGITWRTASTYYADSVKGRFTISRDNAKNTVYLQMNSLKPEDTAVYYCNADAWVWYYYYSYDYWGQGTQVTVSS", "polyreactivity (PSR sort gate)": "low polyreactivity"}
{"sequence": "QVQLVESGGGLVQAGGSLRLSCAASGRIFGTYAMGWYRQAPGKEREFVAAITSSGGNTYYADSVKGRFTISRDNAKNTVYLQMNSLKPEDTGVYYCNARPLYRHYITRFDYWGQGTQVTVSS", "polyreactivity (PSR sort gate)": "high polyreactivity"}
{"sequence": "QVQLVESGGGLVQAGGSLRLSCAASGRIFGTYAMGWYRQAPGKERELVAAITQSGGSTYYADSVKGRFTISRDNAKNTVYLQMNSLKPEDTAVYYCKLVKTTSTLGKRRYDYWGQGTQVTVSS", "polyreactivity (PSR sort gate)": "high polyreactivity"}
{"sequence": "QVQLVESGGGLVQAGGSLRLSCAASGRIFGTYAMGWYRQAPGKERELVAAITRDGSTNYADSVKGRFTISRDNAKNTVYLQMYSLKTEDSAVYYCAAGYLPDPDDYDSWGQGTQVNVSS", "polyreactivity (PSR sort gate)": "low polyreactivity"}
{"sequence": "QVQLVESGGGLVQAGGSLRLSCAASGRIFGVNAMGGYRQAPGKERELVAAIFSGGSTYYADSVKGRFTISRDNAKNTVYLQMNSLKPEDTAVYYCAKLYTVAIVWSAYDYWGQGTQVTVSS", "polyreactivity (PSR sort gate)": "low polyreactivity"}
{"sequence": "QVQLVESGGGLVQAGGSLRLSCAASGRIFGVNAMGWYRPAPGKERELVAHIRSSGASTYYADSVKGRFTISRDNAKNTVYLQMNSLKPEDTAVYYCARDYFVDGPGYDYWGQGTQVTVSS", "polyreactivity (PSR sort gate)": "low polyreactivity"}
{"sequence": "QVQLVESGGGLVQAGGSLRLSCAASGRIFGVNAMGWYRQAPGKERELVAGITTSGGSTYYADSVKGRFTISRDNAKNTVYLQMNSLKPEDTAVYYFNGLTRRWYSLRSYDYWGQGTQVTVSW", "polyreactivity (PSR sort gate)": "high polyreactivity"}
{"sequence": "QVQLVESGGGLVQAGGSLRLSCAASGRIFGVNTMGWYRQEPGKEREMVAVIRESDGSTYYADSVKGRFTISRDNAKNTVYLQMNSLKPEDTAVYYCAKDWYRSPSTYEWNSQYGYWGQGTQVTVSS", "polyreactivity (PSR sort gate)": "low polyreactivity"}
{"sequence": "QVQLVESGGGLVQAGGSLRLSCAASGRIFGVYAMGWYRPAPGKERELVAAITRGASTYYADSVKGRFTISRDNAKNTVYLQMNSLKPEDTAVYYCAAVVSGRYWGYYSWGQGTQVTVSS", "polyreactivity (PSR sort gate)": "high polyreactivity"}
{"sequence": "QVQLVESGGGLVQAGGSLRLSCAASGRIFGVYAMGWYRQAPGKERELGAALSEGGGSTNYADSVKGRFTISRDNAKNTVYLQMNSLKPEDTAVDYCAATSRTGVRRYYSWGQGTQVTVSS", "polyreactivity (PSR sort gate)": "low polyreactivity"}
{"sequence": "QVQLVESGGGLVQAGGSLRLSCAASGRIFGVYAMGWYRQAPGKERELVAAIRGGGSTKYADSVKGRFTISRDNAKNTVYLQMNSLKPEDTAVYYCAARKRYYKHDYWGQGTQVTVSS", "polyreactivity (PSR sort gate)": "low polyreactivity"}
{"sequence": "QVQLVESGGGLVQAGGSLRLSCAASGRIFGVYAMGWYRQAPGKERELVAAISEGGGSTNYADSVKGRFTISRDNAKNTVYLQMNSLKPEDTAVYYCAADRSYYGYGYWGQGTQVTVSS", "polyreactivity (PSR sort gate)": "low polyreactivity"}
